Laboratory results published in paper PMC5131608.

Target: Tt1219^33-236 (T. thermophilus HB8)
Test: SEC; size exclusion chromatography of Tt1219^33-236 alone (Supplementary Fig. 1)

Tt1219^33-236 (domain or fragment)
stoichiometry N: 2
